Measured values: the supplement of paper PMC10065799, “High-throughput profiling of sequence recognition by tyrosine kinases and SH2 domains using bacterial peptide display” (eLife, 2023)

Tests used:
c-Abl (mouse) = test: phosphorylation enrichment, bacterial display (enrichment ratio); higher = better substrate or ligand; peptides without Tyr show the background
Fer (mouse) = test: as above
c-Src = test: as above
Hck = Hck (UniProt P08631); test: as above
Fyn = Fyn (UniProt P06241); test: as above
FGFR1 = FGFR1 (UniProt P11362); test: as above
Fes = Fes (UniProt P07332); test: as above
AncSZ = test: as above
FGFR3 = FGFR3 (UniProt P22607); test: as above
MERTK = MERTK (UniProt Q12866); test: as above
EPHB1 = EPHB1 (UniProt P54762); test: as above
Jak2 = Jak2 (UniProt O60674); test: as above
EPHB2 = EPHB2 (UniProt P29323); test: as above
c-Src SH2 = test: SH2 binding enrichment of the phosphorylated peptide, bacterial display (enrichment ratio); higher = better substrate or ligand; peptides without Tyr show the background
SHP2-C SH2 = test: as above
Grb2 SH2 = Grb2 SH2 (UniProt P62993); test: as above
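Wherever SH2 binding enrichment of the phosphorylated peptide, bacterial display is given: peptide library displayed on the E. coli surface as eCPX fusions, selected cells deep-sequenced, score is each peptide's frequency after selection divided by its frequency in the input.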
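Wherever phosphorylation enrichment, bacterial display is given: 11-residue human phosphosite peptides and single-mutation variants displayed on the E. coli surface, counted by deep sequencing, each peptide's frequency after selection divided by its frequency in the unselected input library; frequency after pTyr selection over input frequency; kinase dosed for 20-30% of maximal phosphorylation in three min.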

Sequence of EPHB1 (P54762 whole entry, looked up): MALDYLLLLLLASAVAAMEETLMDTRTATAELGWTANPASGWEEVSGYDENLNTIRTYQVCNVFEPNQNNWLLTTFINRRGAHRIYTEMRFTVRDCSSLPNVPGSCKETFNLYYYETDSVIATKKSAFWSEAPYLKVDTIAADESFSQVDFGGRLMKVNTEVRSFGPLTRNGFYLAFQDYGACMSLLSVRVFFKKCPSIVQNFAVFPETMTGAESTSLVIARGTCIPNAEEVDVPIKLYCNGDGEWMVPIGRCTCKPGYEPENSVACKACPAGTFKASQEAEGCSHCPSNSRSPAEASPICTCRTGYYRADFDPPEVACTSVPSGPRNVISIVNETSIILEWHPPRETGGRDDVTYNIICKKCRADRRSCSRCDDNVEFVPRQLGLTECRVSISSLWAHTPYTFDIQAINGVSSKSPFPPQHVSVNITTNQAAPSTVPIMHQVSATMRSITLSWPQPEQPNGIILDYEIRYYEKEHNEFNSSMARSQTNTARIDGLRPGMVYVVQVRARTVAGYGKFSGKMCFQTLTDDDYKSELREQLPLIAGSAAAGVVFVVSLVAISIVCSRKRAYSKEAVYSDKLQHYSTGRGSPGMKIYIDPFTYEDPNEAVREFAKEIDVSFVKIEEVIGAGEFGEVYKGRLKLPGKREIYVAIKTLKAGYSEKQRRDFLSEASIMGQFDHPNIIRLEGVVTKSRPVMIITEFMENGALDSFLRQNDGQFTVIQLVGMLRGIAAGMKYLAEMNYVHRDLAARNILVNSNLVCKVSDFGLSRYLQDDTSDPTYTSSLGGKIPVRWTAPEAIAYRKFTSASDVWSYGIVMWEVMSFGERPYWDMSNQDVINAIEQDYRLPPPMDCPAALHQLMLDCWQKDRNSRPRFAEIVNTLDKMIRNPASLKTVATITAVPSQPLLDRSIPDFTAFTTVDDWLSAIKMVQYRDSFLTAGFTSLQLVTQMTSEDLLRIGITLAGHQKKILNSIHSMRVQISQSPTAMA
Sequence of EPHB2 (P29323 whole entry, looked up): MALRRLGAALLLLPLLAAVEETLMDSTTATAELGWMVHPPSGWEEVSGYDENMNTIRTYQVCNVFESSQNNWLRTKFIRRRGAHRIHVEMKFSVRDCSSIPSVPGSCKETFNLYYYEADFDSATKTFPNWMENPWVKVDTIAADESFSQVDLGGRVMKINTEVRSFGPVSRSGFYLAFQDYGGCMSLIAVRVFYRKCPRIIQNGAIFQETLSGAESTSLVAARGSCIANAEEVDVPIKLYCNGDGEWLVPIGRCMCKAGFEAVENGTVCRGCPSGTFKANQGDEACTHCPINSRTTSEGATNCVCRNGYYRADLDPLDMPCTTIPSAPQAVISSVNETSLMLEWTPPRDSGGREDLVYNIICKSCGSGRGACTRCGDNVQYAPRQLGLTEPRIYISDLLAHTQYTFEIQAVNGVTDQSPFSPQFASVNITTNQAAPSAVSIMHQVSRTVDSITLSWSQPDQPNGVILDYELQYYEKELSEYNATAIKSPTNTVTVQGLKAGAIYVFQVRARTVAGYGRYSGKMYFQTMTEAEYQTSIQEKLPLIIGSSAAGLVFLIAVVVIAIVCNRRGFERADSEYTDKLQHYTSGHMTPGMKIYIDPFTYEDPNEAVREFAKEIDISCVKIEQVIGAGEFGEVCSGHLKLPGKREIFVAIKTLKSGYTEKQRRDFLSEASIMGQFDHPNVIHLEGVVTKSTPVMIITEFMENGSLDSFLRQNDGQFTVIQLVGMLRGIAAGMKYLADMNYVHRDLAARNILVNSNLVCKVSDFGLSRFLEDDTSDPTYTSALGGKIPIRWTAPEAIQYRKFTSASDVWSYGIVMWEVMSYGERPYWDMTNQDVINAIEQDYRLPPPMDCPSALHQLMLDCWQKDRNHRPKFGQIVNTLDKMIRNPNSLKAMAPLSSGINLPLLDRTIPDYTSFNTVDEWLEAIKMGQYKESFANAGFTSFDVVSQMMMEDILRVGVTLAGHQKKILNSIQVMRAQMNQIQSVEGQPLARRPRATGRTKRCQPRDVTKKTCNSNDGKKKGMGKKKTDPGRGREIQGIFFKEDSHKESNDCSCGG
Sequence of Hck (P08631 whole entry, looked up): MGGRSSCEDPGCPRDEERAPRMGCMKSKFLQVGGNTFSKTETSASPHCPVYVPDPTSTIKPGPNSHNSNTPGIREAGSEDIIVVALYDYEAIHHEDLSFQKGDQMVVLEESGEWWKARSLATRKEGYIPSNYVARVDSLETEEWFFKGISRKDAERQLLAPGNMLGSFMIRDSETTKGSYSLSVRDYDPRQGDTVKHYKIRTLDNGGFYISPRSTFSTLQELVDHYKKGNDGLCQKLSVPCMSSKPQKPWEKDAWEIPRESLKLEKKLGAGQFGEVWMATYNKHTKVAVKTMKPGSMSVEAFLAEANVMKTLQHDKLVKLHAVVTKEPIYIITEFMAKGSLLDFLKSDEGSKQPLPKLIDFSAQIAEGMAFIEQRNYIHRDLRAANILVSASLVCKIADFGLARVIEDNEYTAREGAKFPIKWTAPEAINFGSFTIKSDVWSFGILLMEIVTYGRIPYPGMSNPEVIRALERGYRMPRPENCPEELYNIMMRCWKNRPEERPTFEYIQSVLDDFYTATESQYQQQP
Sequence of FGFR1 (P11362 whole entry, looked up): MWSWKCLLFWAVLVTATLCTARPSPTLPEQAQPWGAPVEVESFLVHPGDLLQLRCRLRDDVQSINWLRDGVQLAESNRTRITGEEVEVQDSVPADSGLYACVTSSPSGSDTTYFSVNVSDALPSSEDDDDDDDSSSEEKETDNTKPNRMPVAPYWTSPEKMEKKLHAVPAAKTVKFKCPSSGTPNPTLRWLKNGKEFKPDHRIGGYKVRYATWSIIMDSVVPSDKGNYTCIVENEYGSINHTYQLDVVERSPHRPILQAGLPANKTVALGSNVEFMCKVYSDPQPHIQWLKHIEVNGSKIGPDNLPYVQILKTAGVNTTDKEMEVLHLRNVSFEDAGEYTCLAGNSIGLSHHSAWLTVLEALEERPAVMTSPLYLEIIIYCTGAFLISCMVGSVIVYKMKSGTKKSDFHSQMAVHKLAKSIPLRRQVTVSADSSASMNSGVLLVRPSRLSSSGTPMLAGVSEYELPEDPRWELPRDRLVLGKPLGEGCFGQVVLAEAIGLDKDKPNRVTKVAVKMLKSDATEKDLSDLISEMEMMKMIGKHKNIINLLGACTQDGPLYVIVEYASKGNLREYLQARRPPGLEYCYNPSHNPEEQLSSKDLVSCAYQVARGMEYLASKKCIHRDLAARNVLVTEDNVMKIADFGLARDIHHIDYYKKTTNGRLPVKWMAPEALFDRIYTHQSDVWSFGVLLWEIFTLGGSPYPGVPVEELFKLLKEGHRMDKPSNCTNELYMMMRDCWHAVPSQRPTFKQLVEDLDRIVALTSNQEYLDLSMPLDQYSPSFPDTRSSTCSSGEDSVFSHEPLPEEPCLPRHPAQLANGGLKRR
Sequence of MERTK (Q12866 whole entry, looked up): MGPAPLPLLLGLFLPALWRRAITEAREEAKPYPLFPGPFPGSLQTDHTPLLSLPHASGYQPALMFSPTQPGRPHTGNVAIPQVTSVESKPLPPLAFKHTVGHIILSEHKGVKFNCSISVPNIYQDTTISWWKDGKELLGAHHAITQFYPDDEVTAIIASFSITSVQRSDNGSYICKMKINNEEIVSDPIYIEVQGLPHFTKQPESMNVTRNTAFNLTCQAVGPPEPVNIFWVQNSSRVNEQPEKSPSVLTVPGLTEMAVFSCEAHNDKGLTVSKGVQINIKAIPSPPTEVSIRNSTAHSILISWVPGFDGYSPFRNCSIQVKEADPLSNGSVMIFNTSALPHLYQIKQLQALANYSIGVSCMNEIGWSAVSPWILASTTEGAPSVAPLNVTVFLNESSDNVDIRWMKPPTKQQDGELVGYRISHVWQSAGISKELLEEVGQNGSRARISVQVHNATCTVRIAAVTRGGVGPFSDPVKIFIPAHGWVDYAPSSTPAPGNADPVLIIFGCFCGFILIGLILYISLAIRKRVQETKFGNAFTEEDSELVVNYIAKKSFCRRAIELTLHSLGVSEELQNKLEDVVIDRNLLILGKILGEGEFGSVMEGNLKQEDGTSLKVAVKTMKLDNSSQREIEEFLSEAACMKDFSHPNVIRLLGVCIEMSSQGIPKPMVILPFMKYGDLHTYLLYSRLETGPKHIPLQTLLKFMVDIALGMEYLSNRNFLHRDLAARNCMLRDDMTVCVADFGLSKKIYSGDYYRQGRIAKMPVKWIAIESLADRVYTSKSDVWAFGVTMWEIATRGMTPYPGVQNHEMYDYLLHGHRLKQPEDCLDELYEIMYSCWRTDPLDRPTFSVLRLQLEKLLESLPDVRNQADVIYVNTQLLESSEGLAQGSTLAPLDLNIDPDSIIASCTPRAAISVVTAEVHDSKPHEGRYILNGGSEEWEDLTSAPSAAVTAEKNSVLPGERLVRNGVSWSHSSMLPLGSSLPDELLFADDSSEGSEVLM
Sequence of Fyn (P06241 whole entry, looked up): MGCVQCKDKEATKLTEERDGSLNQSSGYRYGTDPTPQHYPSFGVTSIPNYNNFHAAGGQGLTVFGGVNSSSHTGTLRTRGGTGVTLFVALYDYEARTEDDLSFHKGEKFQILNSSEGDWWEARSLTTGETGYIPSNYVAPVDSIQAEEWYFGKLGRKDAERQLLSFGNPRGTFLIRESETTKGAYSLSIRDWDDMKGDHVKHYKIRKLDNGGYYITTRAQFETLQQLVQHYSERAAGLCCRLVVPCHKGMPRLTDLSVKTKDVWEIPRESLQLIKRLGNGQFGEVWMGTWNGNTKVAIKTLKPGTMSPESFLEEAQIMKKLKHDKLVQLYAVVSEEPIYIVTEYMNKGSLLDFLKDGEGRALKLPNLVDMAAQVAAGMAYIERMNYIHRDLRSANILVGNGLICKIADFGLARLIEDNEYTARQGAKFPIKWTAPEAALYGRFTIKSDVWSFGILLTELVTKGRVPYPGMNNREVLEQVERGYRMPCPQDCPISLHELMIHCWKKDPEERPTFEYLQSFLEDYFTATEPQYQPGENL

Sequence	SH2 binding enrichment (c-Src SH2)	SH2 binding enrichment (SHP2-C SH2)	SH2 binding enrichment (Grb2 SH2)	phosphorylation enrichment (c-Abl (mouse))	phosphorylation enrichment (Fer (mouse))	phosphorylation enrichment (c-Src)	phosphorylation enrichment (Hck)	phosphorylation enrichment (Fyn)	phosphorylation enrichment (FGFR1)	phosphorylation enrichment (Fes)	phosphorylation enrichment (AncSZ)	phosphorylation enrichment (FGFR3)	phosphorylation enrichment (MERTK)	phosphorylation enrichment (EPHB1)	phosphorylation enrichment (Jak2)	phosphorylation enrichment (EPHB2)
EVESPYEVRDF [GIGYF2_Y1168_H1171R_YF]	0.45	0.616	0.888	1.09	9.13	6.73	2.04	7.49	0.655	1.71	1.57	0.942	0.809	1.01	1.63	0.951
EVGHVYLFLQP [ITGA2B_Y360_R358H]	0.425	0.669	0.755	0.885	0.618	0.434	0.5	0.472	0.512	1.42	1.33	0.893	0.393	0.735	1.42	0.679
EVRTQYEEIAQ [KRT76_Y361_A359T]	20.6	0.967	0.882	0.899	0.588	0.376	0.576	0.455	0.49	1.04	1.08	0.726	0.395	0.679	0.919	0.504
EWLRRYLKNGK [HLA-C_Y195_E197K]	0.436	0.409	0.656	0.546	0.471	0.504	0.522	0.439	0.507	0.636	0.68	0.516	0.581	0.373	0.679	0.578
FDSPFYRDSLP [TSC1_Y508]	0.518	0.652	0.796	0.47	0.497	0.451	0.47	0.454	0.446	0.68	0.703	0.484	0.409	0.314	0.594	0.479
FECKWYIPLTD [BCR_Y756_D752E_YF]	0.561	0.817	0.685	0.796	0.592	0.451	0.538	0.434	0.497	1.49	1.23	1	0.433	0.754	1.32	0.723
FENGEYIIRQG [PRKG1_Y247_YF]	0.382	0.462	0.908	0.653	0.557	0.591	0.565	0.572	0.499	1.07	1.01	0.69	0.427	0.543	0.92	0.464
FEPDAYFDLDQ [ELP5_Y302_D303Y_YF]	0.501	0.499	0.814	0.91	0.648	0.584	0.622	0.598	5.04	1.34	1.52	4.43	0.477	0.678	1.82	0.656
FESPRYLQVRI [FANCA_Y488_H492R]	0.742	0.964	0.763	0.68	0.589	0.437	0.579	0.513	0.62	0.985	0.946	0.572	0.437	0.537	0.756	0.477
FFRKFCNKSED [RYR1_Y4864_Y4864C]	0.513	0.75	0.992	0.677	0.417	0.442	0.603	0.589	0.49	1.04	0.981	0.6	0.518	0.515	0.779	0.381
FGCGMYSHLQG [LGR4_Y848_D844G_YF]	1.1	0.731	0.875	1.04	0.745	2.53	1.71	0.713	0.795	1.09	1.1	0.916	3.76	0.879	1.06	0.744
FHKALYTVRSY [PDE6C_Y266]	0.456	0.87	0.814	0.775	0.471	0.582	0.801	0.515	0.465	0.919	0.814	0.576	0.414	0.534	0.704	0.524
FIGRIYLFLTK [GARS1_Y414_YF]	0.879	1.22	1.57	1.31	0.707	0.632	0.564	0.567	0.542	1.45	1.61	0.813	0.586	0.83	1.38	0.632
FKDYFYCWNTS [AICDA_Y146_F151S]	0.375	0.542	0.73	0.973	1.03	0.885	0.599	0.618	11.2	1.44	2.62	9.31	2.14	5.4	3.67	2.58
FKGIVYSVSSD [DCX_Y70_A71S]	0.456	0.695	0.718	0.887	0.399	0.722	0.547	0.666	0.548	1.11	1.09	0.666	0.488	0.535	0.959	0.668
FKGKNYKPLDL [RPL35_Y78_K77N_YF]	0.613	0.644	0.962	0.618	0.471	0.487	0.38	0.354	0.393	0.641	0.432	0.418	0.359	0.262	0.663	0.385
FKNGDYNEVMK [LCT_Y1638]	1.77	0.642	0.744	0.578	0.41	0.388	0.541	0.389	0.579	0.903	0.882	0.548	0.388	0.578	0.595	0.415
FLEKFYKFGSR [NNMT_Y25_YF]	0.428	0.789	0.883	0.551	0.389	0.365	0.341	0.413	0.571	0.746	0.723	0.548	0.433	0.592	0.679	0.6
FLQEIYNSNNQ [FGG_Y140_YF]	0.53	1.1	0.89	0.713	0.63	1.64	1.69	1.46	0.65	1.08	1.07	0.883	0.514	0.79	0.907	0.602
FLQTDYTSQVS [FRMPD1_Y846]	0.579	0.873	0.791	0.565	0.451	0.428	0.417	0.404	0.442	0.805	1.03	0.538	0.386	0.37	0.732	0.44
FPIDHYLGKEM [G6PD_Y202_R198P_YF]	0.497	0.716	0.908	0.524	0.469	0.489	0.68	0.396	0.492	0.903	0.789	0.619	0.391	0.404	0.685	0.485
FQCLRYIKQLG [SAMHD1_Y146_R143C]	0.528	0.658	0.662	0.809	0.428	0.44	0.452	0.427	0.382	1.25	0.954	0.596	0.423	0.468	1.11	0.434

Now from value to sequence, other results behind:

SH2 binding enrichment (c-Src SH2)	SH2 binding enrichment (SHP2-C SH2)	SH2 binding enrichment (Grb2 SH2)	Sequence	phosphorylation enrichment (c-Abl (mouse))	phosphorylation enrichment (Fer (mouse))	phosphorylation enrichment (c-Src)	phosphorylation enrichment (Hck)	phosphorylation enrichment (Fyn)	phosphorylation enrichment (FGFR1)	phosphorylation enrichment (Fes)	phosphorylation enrichment (AncSZ)	phosphorylation enrichment (FGFR3)	phosphorylation enrichment (MERTK)	phosphorylation enrichment (EPHB1)	phosphorylation enrichment (Jak2)	phosphorylation enrichment (EPHB2)
0.51	0.521	0.749	EVEPTYVVLFD [ERCC4_Y577_R576T_YF]	1.22	1.08	5.25	3.99	6.46	5.46	1.21	1.51	3.65	3.5	11.1	1.26	14.1
0.626	0.885	0.674	EVESPYEVRDY [GIGYF2_Y1168_H1171R]	0.765	5.62	4.71	1.48	5.17	0.542	1.29	1.23	0.751	0.554	0.785	1.16	0.752
0.587	0.669	0.977	EVKAQNEDIAQ [KRT1_Y358_Y358N]	0.51	0.411	0.427	0.488	0.413	0.54	0.867	0.86	0.584	0.511	0.422	0.767	0.549
0.38	0.785	0.657	EYFENYIEELK [PARP4_Y218]	0.851	0.518	0.63	0.607	0.539	2.31	1.4	1.44	1.69	0.422	0.73	1.5	0.647
0.623	0.807	1.03	FEPDAYDDLDQ [ELP5_Y302_YF]	0.731	0.6	0.41	0.571	0.574	0.573	1.3	1.29	0.704	0.57	0.624	1.27	0.684
0.902	1.07	1.27	FFHCTYKQRMI [CLEC12A_Y242_K244Q_YF]	0.85	0.513	0.435	0.498	0.493	0.643	1.28	1.04	0.752	0.517	0.687	1.02	0.608
0.469	0.609	0.69	FGGLRCGFGVL [KRTAP20-2_Y13_Y13C_YF]	0.673	0.46	0.37	0.403	0.349	0.45	1.14	0.91	0.686	0.34	0.49	0.901	0.537
0.625	0.592	0.672	FGRTFYNQAIM [MCCC2_Y196]	0.635	0.411	0.463	0.462	0.407	0.377	1.04	1.08	0.535	0.431	0.476	0.96	0.529
0.805	0.876	0.916	FGYPGYQCKHY [TIMP3_Y177_S179C]	0.473	0.374	0.428	0.44	0.477	0.46	0.806	0.718	0.59	0.704	0.295	0.588	0.519
0.792	0.731	1.07	FIRKDYEACKA [BBS4_Y48_YF]	0.726	0.49	0.479	0.396	0.445	0.502	0.865	0.642	0.592	0.334	0.651	0.741	0.516
0.383	0.887	0.915	FKPGFYNLKEK [LAMA1_Y490_C485Y_YF]	0.473	0.61	0.466	0.489	0.466	0.513	0.689	0.601	0.616	0.566	0.434	0.499	0.396
